The values below come from US20060275780, “Cross-linking reagents and uses thereof” (Beckman Coulter, Inc., published 2006).

For data set [1], the target named is T1, FGFb (fibroblast growth factor-basic, bFGF, FGF2) (UniProt P09038 P09038:143-288). The data set can be described thus: printed aptamer array; stated to bind as tightly as the BrdU aptamer; cross-linking avidity lower (curve shifted right) after 1N NaOH 1% SDS. On the procedure:
FGFb bindings by bFGF photoaptamer and bFGF native aptamer (GCGAAGGCACACCGAGTTCATAGTATCCCA; SEQ ID NO:2) were compared. Referring to FIG. 3, * denotes PICUP-like cross-linking (the left two columns), while the remaining wells represent non-covalent ligand capture (the right two columns). Samples in plates 1* and 7 were treated with 1N NaOH, 1% SDS to remove the non-covalently bound ligand.
This hypothesis was tested by titrating increasing concentrations of FGFb against the two aptamers and plotting binding curves. Referring to FIG. 4, in the left panel, the two left hand side columns of each array were printed with bFGF photoaptamer, while the two right hand side columns were printed with bFGF native aptamer. The eighteen arrays in the left panel were cross-linked using a PICUP-like protocol, whereas the six arrays in the right panel represent non-covalent binding. All wells were treated with 1N NaOH, 1% SDS to strip the non-covalently bound ligand. The displacement of the bFGF native aptamer binding curve (diamonds) to the right of the bFGF photoaptamer curve (squares) confirmed that the cross-linking avidity of the bFGF native aptamer is lower than its BrdU-modified bFGF photoaptamer analog (FIG. 5).

Data set [2] has as its target T1, FGFb (fibroblast growth factor-basic, …). The data set is described as follows: Ru(bpy)3 2+/APS visible-light cross-linking; urea gel and printed aptamer array with anti-FGF ELF detection; complex stable to 1N NaOH 1% SDS when cross-linked. An excerpt: bFGF photoaptamer (GCG AAG GCA CAC CGA GXX CAX AGX AXC CCA, where X=BrdU; SEQ ID NO:1) was mixed with FGFb ligand overnight to achieve maximal aptamer-ligand binding. White light-mediated photolysis of tris-bipyridylruthenium (II) complex was employed to cross-link the aptamer to the ligand in the presence of APS. The solution was then boiled in the presence of urea-SDS to dissociate bound but uncross-linked ligand from the aptamer. The mixture was subsequently applied to a urea slab gel to separate free aptamer from the cross-linked aptamer-ligand complex by electrophoresis. SYBR Gold staining was used to determine the presence of the aptamer, while double-staining with silver stain was used to determine the presence of the ligand. Referring to FIG. 1, the test sample consisted of bFGF photoaptamer and fibroblast growth factor-basic (FGFb) ligand; the control sample consisted of only bFGF photoaptamer. The test and control samples were incubated overnight prior to PICUP (photo-induced cross-linking of unmodified proteins)-like cross-linking. The samples (12 ul/each) were run on a 6% TBE-urea gel. […] Both the test and control samples were subject to denaturing conditions (100° C. for 5 minutes in TBE-urea sample buffer) prior to electrophoresis.
In FIG. 2, FGFb ligand was applied to an array of aptamers and incubated for 48 hours to achieve maximal binding. […]

T1 sequence (P09038 143-288, one chain of several): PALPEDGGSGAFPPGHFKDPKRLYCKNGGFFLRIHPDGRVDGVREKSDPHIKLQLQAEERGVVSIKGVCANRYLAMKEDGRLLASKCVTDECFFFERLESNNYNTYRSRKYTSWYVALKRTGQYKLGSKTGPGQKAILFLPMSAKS

As for GCGAAGGCACACCGAGTTCATAGTATCCCA (ssDNA) [bFGF native aptamer], the binding result in data set [1] is recorded as “binds”.

B1: bFGF photoaptamer (ssDNA)
DNA: GCGAAGGCACACCGAGTTCATAGTATCCCA
modifications: BrdU at the five n positions (17, 18, 22, 25, 27), replacing T [n positions 17,18,21,24,26 = modified dU]
As for B1, the binding result in data set [2] is “binds”.
